Results: article PMC4227725 (Journal of the American Chemical Society, 2014)

Key:
HeLa cells [1] = settings: 2.5 μM, 30 min, 37 °C, heparin washes, phenol red-free medium
HeLa cells [2] = settings: Tat polymer 2.5 μM, chymotrypsin 1 μM, up to 14 h

Q: GSGSG [GSGSG polymer] was tested. Which “fluorescence in live cells, Z-stack 1 μm slices (in words)” value (HeLa cells [1]) did it give?
A: Its value is “no fluorescence was seen”.

Q: For YGRKKRRQRRR [Tat polymer], which “cell entry after incubation with chymotrypsin, time course (in words)” value (HeLa cells [2]) is on record?
A: The value was “retains the ability to enter cells”.
